Data taken from CN111320694A.

Biological target: GPC3蛋白 (Glypican 3 protein, recombinant) (UniProt P51654)
Test: sandwich ELISA: GPC3 polyclonal antibody coated, GPC3 protein titrated, 0.2μg/mL GN2-Luc as detector, luminescence

Chain of UniProt P51654 (P51654 25-559 limits assumed): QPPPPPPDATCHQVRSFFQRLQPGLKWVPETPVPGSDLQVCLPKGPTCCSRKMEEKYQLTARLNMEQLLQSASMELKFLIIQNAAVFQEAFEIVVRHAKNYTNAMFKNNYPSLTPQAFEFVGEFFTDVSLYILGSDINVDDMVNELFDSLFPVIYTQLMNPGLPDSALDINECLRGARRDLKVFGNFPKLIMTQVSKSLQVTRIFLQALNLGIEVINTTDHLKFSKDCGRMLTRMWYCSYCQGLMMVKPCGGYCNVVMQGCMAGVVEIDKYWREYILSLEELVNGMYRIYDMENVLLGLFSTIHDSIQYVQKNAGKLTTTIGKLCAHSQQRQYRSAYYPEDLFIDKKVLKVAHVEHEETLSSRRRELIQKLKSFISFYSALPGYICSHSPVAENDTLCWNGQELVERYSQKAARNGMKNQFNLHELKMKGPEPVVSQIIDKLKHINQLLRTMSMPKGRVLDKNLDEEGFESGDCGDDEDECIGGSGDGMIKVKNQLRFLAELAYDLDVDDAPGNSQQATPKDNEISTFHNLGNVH

- EC20 (GPC3 concentration at 20% of the strongest luminescence): 0.0539 µg/mL
- EC80 (GPC3 concentration at 80% of the strongest luminescence): 0.219 µg/mL
B1: 融合蛋白GN2-Luc (GN2-Nano-luciferase fusion protein) (protein, part only; not given: junction and purification tag, not shown: small tags and cut ends)
chain, part: QVQLVESGGGLVQPGGSLRLSCAASGFTLDAYAIGWFRQAPGKEREGVSYITSGTGTTLYADSVKGRFTISRDNAKNTVYLQMNSLKPEDTAVYFCTTLKRTTAGGWPIPGRIGGQGTQVTVSS
